Measured values as given in patent publication US20250129150A1 (APOGEE THERAPEUTICS, published 2025).
Positions count from the first letter of the chain named.

T1: Recombinant Cynomolgus IL-13 Protein, His Tag (SINO BIOLOGICAL, Cat. 11057-C07H) (cynomolgus monkey, UniProt Q5I6E4 19-132 (Macaca thibetana entry))
T1 construct: also called Cyno IL-13; cynomolgus monkey IL-13
T1 chain: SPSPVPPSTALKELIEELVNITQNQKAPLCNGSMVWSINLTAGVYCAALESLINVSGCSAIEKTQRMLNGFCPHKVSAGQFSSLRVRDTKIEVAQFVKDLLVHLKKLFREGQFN

T2: recombinant human CD32a (167R) (human, UniProt P12318 36-218)
T2 sequence (looked up): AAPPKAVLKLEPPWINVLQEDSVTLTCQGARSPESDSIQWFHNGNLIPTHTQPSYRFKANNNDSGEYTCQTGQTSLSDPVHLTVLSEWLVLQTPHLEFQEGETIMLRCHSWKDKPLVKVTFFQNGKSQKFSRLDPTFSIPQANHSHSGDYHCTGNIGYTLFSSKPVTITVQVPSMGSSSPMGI

T3: recombinant human CD32b (human, UniProt P31994 46-217)
T3 sequence (looked up): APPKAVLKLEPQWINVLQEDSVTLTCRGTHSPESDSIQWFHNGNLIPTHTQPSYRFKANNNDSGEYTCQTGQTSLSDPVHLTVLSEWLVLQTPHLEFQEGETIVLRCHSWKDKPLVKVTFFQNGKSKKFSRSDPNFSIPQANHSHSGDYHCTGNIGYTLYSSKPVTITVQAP

B1: Construct 136 (antibody, human IgG1, kappa, L234A L235A)
heavy: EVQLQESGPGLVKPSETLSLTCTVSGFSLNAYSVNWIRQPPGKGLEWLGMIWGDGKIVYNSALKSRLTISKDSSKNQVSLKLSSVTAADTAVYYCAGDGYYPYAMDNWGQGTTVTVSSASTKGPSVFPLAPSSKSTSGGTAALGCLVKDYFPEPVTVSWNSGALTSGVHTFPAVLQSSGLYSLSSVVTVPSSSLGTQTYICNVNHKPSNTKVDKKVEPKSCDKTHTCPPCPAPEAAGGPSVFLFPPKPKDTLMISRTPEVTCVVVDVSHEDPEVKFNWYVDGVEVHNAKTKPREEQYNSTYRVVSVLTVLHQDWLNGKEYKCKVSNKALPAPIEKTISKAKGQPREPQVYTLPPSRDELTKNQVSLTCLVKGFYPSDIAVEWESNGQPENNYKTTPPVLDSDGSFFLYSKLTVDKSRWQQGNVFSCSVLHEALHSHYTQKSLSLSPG
light: DIQLTQSPSSLSASVGDRVTITCRASKSVDSYGNSFMHWYQQKPGKAPKLLIYLASNLESGVPSRFSGSGSGTDFTLTISSLQPEDFATYYCQQNNEDPRTFGGGTKVEIKRTVAAPSVFIFPPSDEQLKSGTASVVCLLNNFYPREAKVQWKVDNALQSGNSQESVTEQDSKDSTYSLSSTLTLSKADYEKHKVYACEVTHQGLSSPVTKSFNRGEC
notes: also called HC1; LC6
B2: Construct 134 (antibody, human IgG4, kappa)
heavy: EVQLQESGPGLVKPSETLSLTCTVSGFSLNAYSVNWIRQPPGKGLEWLGMIWGDGKIVYNSALKSRLTISKDSSKNQVSLKLSSVTAADTAVYYCAGDGYYPYAMDNWGQGTTVTVSSASTKGPSVFPLAPCSRSTSESTAALGCLVKDYFPEPVTVSWNSGALTSGVHTFPAVLQSSGLYSLSSVVTVPSSSLGTKTYTCNVDHKPSNTKVDKRVESKYGPPCPSCPAPEFLGGPSVFLFPPKPKDTLYITREPEVTCVVVDVSQEDPEVQFNWYVDGVEVHNAKTKPREEQFNSTYRVVSVLTVLHQDWLNGKEYKCKVSNKGLPSSIEKTISKAKGQPREPQVYTLPPSQEEMTKNQVSLTCLVKGFYPSDIAVEWESNGQPENNYKTTPPVLDSDGSFFLYSRLTVDKSRWQEGNVFSCSVMHEALHNHYTQKSLSLSLGK
light: B1 light
notes: also called HC1; LC6
B3: Construct 137 (antibody, human IgG1, kappa, L234A L235A)
heavy: EVQLLESGGGLVQPGGSLRLSCAASGFSLNAYSVNWVRQAPGKGLEWLGMIWGDGKIVYNSALKSRLTISKDSSKNTVYLQMNSLRAEDTAVYYCAGDGYYPYAMDNWGQGTTVTVSSASTKGPSVFPLAPSSKSTSGGTAALGCLVKDYFPEPVTVSWNSGALTSGVHTFPAVLQSSGLYSLSSVVTVPSSSLGTQTYICNVNHKPSNTKVDKKVEPKSCDKTHTCPPCPAPEAAGGPSVFLFPPKPKDTLYITREPEVTCVVVDVSHEDPEVKFNWYVDGVEVHNAKTKPREEQYNSTYRVVSVLTVLHQDWLNGKEYKCKVSNKALPAPIEKTISKAKGQPREPQVYTLPPSRDELTKNQVSLTCLVKGFYPSDIAVEWESNGQPENNYKTTPPVLDSDGSFFLYSKLTVDKSRWQQGNVFSCSVMHEALHNHYTQKSLSLSPG
light: B1 light with N57E
notes: also called HC5; LC6_m8
B4: Construct 141 (antibody, human IgG1, kappa, L234A L235A)
heavy: EVQLQESGPGLVKPSETLSLTCTVSGFSLNAYSVNWIRQPPGKGLEWLGMIWGDGKIVYNSALKSRLTISKDSSKNQVSLKLSSVTAADTAVYYCAGDGYYPYAMDNWGQGTTVTVSSASTKGPSVFPLAPSSKSTSGGTAALGCLVKDYFPEPVTVSWNSGALTSGVHTFPAVLQSSGLYSLSSVVTVPSSSLGTQTYICNVNHKPSNTKVDKKVEPKSCDKTHTCPPCPAPEAAGGPSVFLFPPKPKDTLYITREPEVTCVVVDVSHEDPEVKFNWYVDGVEVHNAKTKPREEQYNSTYRVVSVLTVLHQDWLNGKEYKCKVSNKALPAPIEKTISKAKGQPREPQVYTLPPSRDELTKNQVSLTCLVKGFYPSDIAVEWESNGQPENNYKTTPPVLDSDGSFFLYSKLTVDKSRWQQGNVFSCSVMHEALHNHYTQKSLSLSPG
light: B1 light with N57E
notes: also called HC1; LC6_m8
B5: Lebrikizumab (Construct 1) (antibody, human IgG4 S228P, kappa)
heavy: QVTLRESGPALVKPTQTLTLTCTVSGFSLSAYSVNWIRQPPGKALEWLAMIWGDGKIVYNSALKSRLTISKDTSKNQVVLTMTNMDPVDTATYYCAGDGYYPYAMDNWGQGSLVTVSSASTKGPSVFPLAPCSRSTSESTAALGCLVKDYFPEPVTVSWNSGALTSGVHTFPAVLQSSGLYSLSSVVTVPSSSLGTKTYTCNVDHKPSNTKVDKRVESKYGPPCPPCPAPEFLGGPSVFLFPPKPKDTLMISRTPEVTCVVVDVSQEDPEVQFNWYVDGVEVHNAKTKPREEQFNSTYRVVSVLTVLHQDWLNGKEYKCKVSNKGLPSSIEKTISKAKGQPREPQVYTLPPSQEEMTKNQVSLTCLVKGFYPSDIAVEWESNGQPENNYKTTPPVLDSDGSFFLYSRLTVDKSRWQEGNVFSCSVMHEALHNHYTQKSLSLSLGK
light: DIVMTQSPDSLSVSLGERATINCRASKSVDSYGNSFMHWYQQKPGQPPKLLIYLASNLESGVPDRFSGSGSGTDFTLTISSLQAEDVAVYYCQQNNEDPRTFGGGTKVEIKRTVAAPSVFIFPPSDEQLKSGTASVVCLLNNFYPREAKVQWKVDNALQSGNSQESVTEQDSKDSTYSLSSTLTLSKADYEKHKVYACEVTHQGLSSPVTKSFNRGEC
notes: also called Lebrikizumab-HC; Lebrikizumab-LC

Experiments:
recombinant human FcRn = biological target: T4, recombinant human FcRn (human, UniProt P55899 24-297; P61769 21-119); test: SPR, antibody captured on anti-kappa chip, FcRn as analyte, pH 5.8; pH 5.8
T4 construct: also called neonatal Fc receptor
T4 sequence (P55899 24-297 limits assumed, chain 1 of 2): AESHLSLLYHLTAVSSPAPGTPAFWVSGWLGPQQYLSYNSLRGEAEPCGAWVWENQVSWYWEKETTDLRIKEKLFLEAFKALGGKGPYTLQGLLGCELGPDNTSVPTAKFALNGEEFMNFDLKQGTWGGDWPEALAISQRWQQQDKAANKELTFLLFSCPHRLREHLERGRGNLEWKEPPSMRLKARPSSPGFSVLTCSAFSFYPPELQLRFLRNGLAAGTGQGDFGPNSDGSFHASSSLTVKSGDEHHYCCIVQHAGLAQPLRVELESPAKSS
T4 sequence (P61769 21-119 limits assumed, chain 2 of 2): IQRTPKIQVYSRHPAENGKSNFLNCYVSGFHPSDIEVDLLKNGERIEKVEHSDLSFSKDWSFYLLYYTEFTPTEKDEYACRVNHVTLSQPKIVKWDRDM
Description: (§1) Binding affinity (KD) of antibodies to Fc receptors and C1q were determined through surface plasmon resonance (SPR) using a Biacore 8K. Briefly, an SPR chip functionalized with an anti-kappa light-chain antibody was used to capture purified antibodies normalized to […], at a flow rate of 10 uL/min for 90 seconds or 120 seconds. A paired channel with only buffer was used as reference. Subsequently, varying concentrations of recombinant human CD32a (167H), CD32a (167R), CD32b, CD16a (176V), CD16a (176F), FcRn, CD64, and C1q were injected over the surface with captured purified antibody as well as the reference channel. Regeneration of the chip between different concentrations of different antigens were performed with 10 mM Glycine HCl, pH 1.5 and antibody was again captured. Association and dissociation rate constants were subsequently determined through fitting to a 1:1 Langmuir binding model or steady-state analysis model, whichever applicable, using the Biacore Insight Evaluation Software from which a KD value was derived.

hIL-13 [1] = biological target: T5, hIL-13 (human, UniProt P35225 35-146, limits assumed); test: ELISA
T5 construct: IL-13 as used in the cell assays, the ELISA, the binning study and HDX-MS/XL-MS; also called human IL-13; Hu IL-13
T5 sequence (P35225 other isoform, or with tags, fused parts or gaps limits assumed): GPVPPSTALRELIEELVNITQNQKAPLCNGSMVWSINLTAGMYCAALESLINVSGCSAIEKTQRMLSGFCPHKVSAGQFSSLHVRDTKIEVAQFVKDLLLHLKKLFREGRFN

hIL-13 [2] = biological target: T5, hIL-13; test: cell-based or functional assay
recombinant human C1q = biological target: T6, recombinant human C1q (human, UniProt P02745 23-245; P02746 28-253; P02747 29-245, limits assumed); test: SPR, antibody captured on anti-kappa chip, C1q as analyte; signal relative to rituximab
T6 construct: subunit composition is from general knowledge
T6 sequence (P02745 23-245 limits assumed, chain 1 of 3): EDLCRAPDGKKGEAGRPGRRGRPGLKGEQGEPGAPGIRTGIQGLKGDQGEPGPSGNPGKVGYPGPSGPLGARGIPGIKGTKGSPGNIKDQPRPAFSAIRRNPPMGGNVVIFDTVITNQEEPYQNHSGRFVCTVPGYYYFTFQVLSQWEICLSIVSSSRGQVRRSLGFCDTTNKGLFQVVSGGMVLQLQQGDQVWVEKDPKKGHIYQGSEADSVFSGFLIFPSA
T6 sequence (P02746 28-253 limits assumed, chain 2 of 3): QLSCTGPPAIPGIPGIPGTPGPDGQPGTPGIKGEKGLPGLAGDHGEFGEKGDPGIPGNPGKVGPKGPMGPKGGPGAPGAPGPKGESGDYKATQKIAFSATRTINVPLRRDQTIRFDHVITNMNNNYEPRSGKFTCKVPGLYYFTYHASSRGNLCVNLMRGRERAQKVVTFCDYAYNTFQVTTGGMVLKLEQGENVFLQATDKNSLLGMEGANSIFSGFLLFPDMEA
T6 sequence (P02747 29-245 limits assumed, chain 3 of 3): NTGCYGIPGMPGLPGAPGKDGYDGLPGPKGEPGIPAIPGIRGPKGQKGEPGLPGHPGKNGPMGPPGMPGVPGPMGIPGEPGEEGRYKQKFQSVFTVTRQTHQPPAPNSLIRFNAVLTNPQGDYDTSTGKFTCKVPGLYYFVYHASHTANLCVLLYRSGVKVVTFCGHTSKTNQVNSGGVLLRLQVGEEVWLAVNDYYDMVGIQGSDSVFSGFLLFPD
Description: as §1

biotinylated hIL-13 = biotinylated hIL-13 (human, UniProt P35225 35-146, limits assumed, biotinylated (site not stated)); test: FACS; blockade of biotinylated hIL-13 (0.05 ug/mL) binding to HEK293 cells expressing hIL-13Rα1/hIL-4Rα
biotinylated hIL-13, sequence (P35225 other isoform, or with tags, fused parts or gaps limits assumed): as the sequence (P35225 other isoform, or with tags, fused parts or gaps limits assumed) above
Description: Briefly, HEK293 previously transduced to stably express both hIL-13Rα and hIL-4Rα were cultured and harvested. Cells were seeded at 200,000 cells in 100 uL per well. Cells were washed and the supernatant was discarded. […] The cells were stained in this mixture at 4° C. for 1 hour. […] Cells were incubated at 4° C. for 1 hour, protected from light. Cells were then washed and the median fluorescence intensity (MFI) of cells in each well were recorded by FACS using a BD FACSCanto II. Subsequent data were analyzed using GraphPad Prism.

[3] = biological target: T1, Recombinant Cynomolgus IL-13 Protein, …; test: SPR (Biacore 8K), mAb captured on Protein G chip, IL-13 as analyte
Description: (§2) Samples were injected in a multi-cycle manner over freshly captured mAb, by regenerating the capture surfaces with injection of glycine pH 1.5 for 30 sec at a flow rate of 30 μL/min. The data was processed and analyzed with Biacore Insight Evaluation Software Version 2.0.15.12933 (GE Healthcare) as follows. […] The responses from the two buffer blank injections were then subtracted from the reference subtracted data (2-1) to yield double-referenced data, which were fit to an 1:1 binding model to determine the apparent association (ka) and dissociation rate constants (kd). Their ratio provided the apparent equilibrium dissociation constant or affinity constant (KD=kd/ka).

[4] = biological target: T7, Recombinant Human IL-13 Protein, His Tag (Acro Cat. IL3-H52H4) (human, UniProt P35225 35-146); test: as above
T7 construct: Bought protein; also called Hu IL-13; not shown: His Tag
T7 sequence (P35225 other isoform, or with tags, fused parts or gaps limits assumed): as above
Description: as §2

hIL-13 [5] = biological target: T5, hIL-13; test: cell-based or functional assay; remark: listed apart in the source
hIL-13 [6] = biological target: T5, hIL-13; test: cell-based or functional assay; remark: listed apart in the source
[7] = biological target: T2, recombinant human CD32a (167R); test: SPR, antibody captured on anti-kappa chip, recombinant human receptor as analyte
Description: as §1

recombinant human CD32b = biological target: T3, recombinant human CD32b; test: as above
Description: as §1

[8] = biological target: recombinant human CD16a (176V) (human, UniProt P08637 17-208); test: as above
recombinant human CD16a (176V), sequence (P08637 17-208 F176V): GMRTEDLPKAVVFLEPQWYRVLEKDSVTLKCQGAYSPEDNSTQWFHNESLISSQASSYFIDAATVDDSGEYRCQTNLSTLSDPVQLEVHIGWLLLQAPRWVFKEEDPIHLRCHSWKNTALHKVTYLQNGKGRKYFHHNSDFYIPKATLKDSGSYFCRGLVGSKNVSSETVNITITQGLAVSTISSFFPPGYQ
Description: as §1

recombinant human CD64 = recombinant human CD64 (human, UniProt P12314 16-288); test: as above
recombinant human CD64, sequence (P12314 16-288 limits assumed): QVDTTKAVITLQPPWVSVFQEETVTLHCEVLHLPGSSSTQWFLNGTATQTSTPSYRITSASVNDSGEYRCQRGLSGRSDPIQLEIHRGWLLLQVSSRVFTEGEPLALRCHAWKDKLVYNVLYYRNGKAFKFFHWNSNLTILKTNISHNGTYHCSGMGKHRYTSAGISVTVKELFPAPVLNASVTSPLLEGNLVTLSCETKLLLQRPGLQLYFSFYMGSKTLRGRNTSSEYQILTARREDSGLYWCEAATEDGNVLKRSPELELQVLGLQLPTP
Description: as §1

hIL-13 [9] = biological target: T5, hIL-13; test: cell-based or functional assay; remark: listed apart in the source
hIL-13 [10] = biological target: T5, hIL-13; test: cell-based or functional assay; remark: listed apart in the source
hIL-13 [11] = biological target: T5, hIL-13; test: cell-based or functional assay; remark: listed apart in the source

Binder | Kd (recombinant human FcRn) [nM] | Kd (hIL-13 [1]) [nM] | CCL2 Secretion IC50 (HaCaT cells) (hIL-13 [2]) [nM] | CCL26 Secretion IC50 (HaCaT cells) (hIL-13 [2]) [nM] | NTRK1 Expression IC50 (HaCaT cells) (hIL-13 [2]) [nM] | C1q (Signal Relative to Rituximab) (recombinant human C1q) [%] | IC50 (biotinylated hIL-13) [nM] | Kd [3] [nM] | Kd [4] [nM] | TARC Inhibition IC50 (A549 cells) (hIL-13 [5]) [nM] | TF-1 Proliferation Inhibition IC50 (hIL-13 [6]) [nM] | pSTAT6 Inhibition IC50 (HT-29 cells) (hIL-13 [9]) [nM] | Kd [7] [nM] | Kd (recombinant human CD32b) [nM] | Kd (recombinant human CD64) [nM] | CD23 Expression Inhibition IC50 (human PBMCs) (hIL-13 [10]) [nM] | pSTAT6 Inhibition IC50 (human PBMCs) (hIL-13 [10]) [nM] | further results
B1 | 90 | 0.018 | 0.074 | 0.052 | 0.053 | 25.4 | 1.02 | 0.161 | 0.0698 | 0.89 | 0.15 | 0.3 | – | – | – | – | – | binding result [7]: no binding; binding result (recombinant human CD32b): no binding; Kd [8]: 4670 nM; binding result (recombinant human CD64): no binding
B2 | 160 | 0.05 | – | – | – | 25.3 | 1.08 | 0.33 | 0.105 | 0.99 | 0.18 | 0.2 | 8140 | 8620 | 2.8 | – | – | binding result [8]: no binding
B3 | – | 0.026 | – | – | – | – | 0.89 | 0.246 | 0.0421 | 0.87 | 0.16 | 0.33 | – | – | – | 1.01 | 0.44 | –
B4 | – | 0.025 | 0.075 | 0.055 | 0.054 | – | 0.81 | 0.329 | 0.107 | 0.73 | 0.19 | 0.25 | – | – | – | 0.86 | 0.41 | –
B5 | 1060 | – | 0.076 | 0.055 | 0.056 | – | 1.11 | 0.309 | 0.131 | 0.74 | 0.2 | 0.23 | 2380 | 2930 | 1.12 | 0.81 | 0.38 | TARC Release IC50 (A549 cells) (hIL-13 [11]): 0.9 nM
